Reference: US9073974B2, “RGD-containing cyclic peptides” (The Regents of the University of California, priority 2009, dated 2015)
Blank lines part the entries; values can stand above or below the binder they belong to. Numbered stars: 1 amine (or outer) side, 2 acyl side, 3 side chain; on linkers, the order of the positions; unused ones are H or OH. Bridge positions count the residues as written; N and C are the ends. Square brackets hold non-standard residues; d marks the D form. Primed or numbered codes have the meaning given here. Side chains are listed from the residue outwards. Ends that are not written are not given here. Ebes = 2,2'-ethylenedioxy bis(ethylamine) monosuccinamide; Suc = O=C(CCC(=O)[*:2])[*:1]; Ebes″ = not defined here

Columns and labels:
[1] = biological target: T1, αvβ3 integrin (human), P06756; test: flow cytometry, competition with FITC-Echistatin on αvβ3-K562 cells; conditions: remark: other sources report otherwise
T1 chain 1: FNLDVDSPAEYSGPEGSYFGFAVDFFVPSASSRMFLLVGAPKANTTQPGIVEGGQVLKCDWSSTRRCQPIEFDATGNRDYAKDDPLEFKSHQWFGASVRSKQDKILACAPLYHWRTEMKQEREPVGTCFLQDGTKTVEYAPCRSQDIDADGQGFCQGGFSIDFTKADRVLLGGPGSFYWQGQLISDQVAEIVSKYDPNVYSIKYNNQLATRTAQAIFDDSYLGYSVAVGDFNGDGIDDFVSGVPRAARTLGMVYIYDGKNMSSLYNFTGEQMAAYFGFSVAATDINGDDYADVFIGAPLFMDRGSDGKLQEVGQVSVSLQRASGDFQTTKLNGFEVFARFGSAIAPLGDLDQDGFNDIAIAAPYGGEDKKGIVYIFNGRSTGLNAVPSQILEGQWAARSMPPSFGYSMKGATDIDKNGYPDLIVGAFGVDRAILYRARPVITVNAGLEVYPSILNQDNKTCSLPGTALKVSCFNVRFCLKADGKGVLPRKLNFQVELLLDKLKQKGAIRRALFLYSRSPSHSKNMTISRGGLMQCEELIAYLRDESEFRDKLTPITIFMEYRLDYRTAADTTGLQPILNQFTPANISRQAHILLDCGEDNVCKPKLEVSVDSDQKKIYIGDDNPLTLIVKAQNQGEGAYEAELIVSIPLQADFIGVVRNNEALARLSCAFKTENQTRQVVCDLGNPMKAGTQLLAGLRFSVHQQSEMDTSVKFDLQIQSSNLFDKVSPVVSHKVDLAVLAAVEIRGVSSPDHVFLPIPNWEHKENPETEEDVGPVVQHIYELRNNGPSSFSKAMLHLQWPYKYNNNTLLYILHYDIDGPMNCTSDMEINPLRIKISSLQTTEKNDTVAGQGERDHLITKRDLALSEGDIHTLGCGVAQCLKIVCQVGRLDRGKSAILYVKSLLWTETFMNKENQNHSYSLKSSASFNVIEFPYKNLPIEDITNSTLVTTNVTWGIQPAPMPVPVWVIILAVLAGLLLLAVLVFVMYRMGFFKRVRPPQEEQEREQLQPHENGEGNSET
T1 chain 2: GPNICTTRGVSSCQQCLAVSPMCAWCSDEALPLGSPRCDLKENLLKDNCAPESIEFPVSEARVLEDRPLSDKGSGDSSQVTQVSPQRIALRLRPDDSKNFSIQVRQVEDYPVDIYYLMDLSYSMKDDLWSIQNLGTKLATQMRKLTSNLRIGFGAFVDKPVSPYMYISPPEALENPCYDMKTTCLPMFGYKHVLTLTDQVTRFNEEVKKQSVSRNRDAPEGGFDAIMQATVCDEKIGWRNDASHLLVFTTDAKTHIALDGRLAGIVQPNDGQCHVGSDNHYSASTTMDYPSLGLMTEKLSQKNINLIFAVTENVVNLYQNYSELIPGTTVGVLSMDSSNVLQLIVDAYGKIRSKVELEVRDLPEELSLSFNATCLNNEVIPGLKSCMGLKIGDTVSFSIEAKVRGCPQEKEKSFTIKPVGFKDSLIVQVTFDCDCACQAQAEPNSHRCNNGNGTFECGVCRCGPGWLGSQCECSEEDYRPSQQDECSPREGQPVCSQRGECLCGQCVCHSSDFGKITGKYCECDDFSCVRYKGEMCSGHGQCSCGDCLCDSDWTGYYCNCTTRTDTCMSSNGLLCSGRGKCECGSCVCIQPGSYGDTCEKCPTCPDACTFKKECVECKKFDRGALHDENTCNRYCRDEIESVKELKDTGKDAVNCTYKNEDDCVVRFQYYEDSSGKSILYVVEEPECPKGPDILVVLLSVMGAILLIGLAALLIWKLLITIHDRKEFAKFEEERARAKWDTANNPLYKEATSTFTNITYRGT

[2] = biological target: T2, αvβ3 integrin (human, UniProt P06756 31-1048; P05106 27-788); test: as above
T2 construct: whole, on cells; Same entry used for αvβ3-K562, U-87 MG and A375M cells; also called αvβ3-K562; αvβ3 transfected K562 cells

[3] = biological target: T2, αvβ3 integrin; test: as above; remark: listed apart in the source
[4] = biological target: T2, αvβ3 integrin; test: flow cytometry, saturation binding of LXW7-Bio on A375M cells
[5] = biological target: T2, αvβ3 integrin; test: flow cytometry, saturation binding of LXW7-Bio on αvβ3-K562 cells
[6] = biological target: T2, αvβ3 integrin; test: flow cytometry, competition with FITC-Echistatin on αvβ3-K562 cells; remark: listed apart in the source
[7] = biological target: T2, αvβ3 integrin; test: flow cytometry, saturation binding of LXW7-Bio on U-87 MG cells, streptavidin-PE, nonspecific binding with 100 µM LXW7 subtracted
[8] = biological target: T2, αvβ3 integrin; test: flow cytometry, saturation binding of LXW7-Bio on αvβ3-K562 cells, streptavidin-PE, nonspecific binding with 100 µM LXW7 subtracted
[9] = biological target: T2, αvβ3 integrin; test: flow cytometry, saturation binding of LXW7-Bio on A375M cells, streptavidin-PE, nonspecific binding with 100 µM LXW7 subtracted
[10] = biological target: T2, αvβ3 integrin; test: flow cytometry, saturation binding of LXW7-Bio on U-87 MG cells
[11] = biological target: T2, αvβ3 integrin; test: flow cytometry, competition with FITC-Echistatin on αvβ3-K562 cells; +++ = IC50 <1 µM
[12] = biological target: T2, αvβ3 integrin; test: flow cytometry, competition with biotinylated LXW7 on αvβ3-K562 cells (internal reference)

IC50 [1]: 1370 nM
Binder: cyclo(RGD[dF]K([Suc-Ebes″-Lys(biotin)NH2])) (reading uncertain) [cyclo (RGDfK)-Bio]

IC50 [2]: 4700 nM | fold decrease in affinity on biotinylation (against the non-biotinylated form) [3]: 2 to 8 fold
Binder: cyclo(RGD[dF]E([Ebes-Ebes-Lys(biotin) amide])) (also called Biotinylated Cyclo(RGDfE)) [cyclo (RGDfE)-Bio]

IC50 [2]: 600 nM
B1: cyclo(RGDfE) (peptide)
peptide: cyclo(RGD[dF]E)
SMILES: N=C(N)NCCC[C@@H]1NC(=O)[C@H](CCC(=O)O)NC(=O)[C@@H](Cc2ccccc2)NC(=O)[C@H](CC(=O)O)NC(=O)CNC1=O

Bmax [4]: 71 A.U | Bmax [5]: 1390 A.U | IC50 [6]: 620 nM | Kd [7]: 72 nM | Kd [8]: 76 nM | Kd [9]: 89 nM | Bmax [10]: 86 A.U
Binder: [dC]GRGD[dD][dV][dC]-{Ebes-Ebes-K(biotin)-NH2} (disulfide 1-8) [Biotinylated cyclo(cGRGDdvc)]

IC50 [11]: < 1000 nM
B2: LXW3 (peptide)
peptide: [dC]GRGD[dS][dE][dC]-NH2
modifications: disulfide 1-8; N-terminus assumed
SMILES: N=C(N)NCCC[C@@H]1NC(=O)CNC(=O)[C@H](N)CSSC[C@H](C(N)=O)NC(=O)[C@@H](CCC(=O)O)NC(=O)[C@@H](CO)NC(=O)[C@H](CC(=O)O)NC(=O)CNC1=O

IC50 [11]: < 1000 nM | IC50 [6]: 680 nM | IC50 [12]: 590 nM
B3: LXW7 (peptide)
peptide: [dC]GRGD[dD][dV][dC]-NH2
modifications: disulfide 1-8; N-terminus assumed
SMILES: CC(C)[C@H]1NC(=O)[C@@H](CC(=O)O)NC(=O)[C@H](CC(=O)O)NC(=O)CNC(=O)[C@H](CCCNC(=N)N)NC(=O)CNC(=O)[C@H](N)CSSC[C@H](C(N)=O)NC1=O
